PMC3644091

Target: IP39, 39-kDa integral membrane protein of Euglena gracilis (Euglena gracilis)
Test: cryo-EM structure

IP39, 39-kDa integral membrane protein of Euglena gracilis (natural protein)
stoichiometry N: 3
